Source: US11376333B2, “mTG substrates for covalent conjugation of compounds” (COVALAB, priority 2013, dated 2022)

How the values were obtained:
[1] = molecular target: T1, human transglutaminase 2 (hTG2) (Homo sapiens, UniProt P21980); test: TG2-mediated incorporation of biotin-cadaverine into peptides coupled on Covabtest plate; type: biochemical; details: same conditions as for mTG
T1 construct: purchased Covalab, France opr 0027
T1 sequence (P21980 1-687): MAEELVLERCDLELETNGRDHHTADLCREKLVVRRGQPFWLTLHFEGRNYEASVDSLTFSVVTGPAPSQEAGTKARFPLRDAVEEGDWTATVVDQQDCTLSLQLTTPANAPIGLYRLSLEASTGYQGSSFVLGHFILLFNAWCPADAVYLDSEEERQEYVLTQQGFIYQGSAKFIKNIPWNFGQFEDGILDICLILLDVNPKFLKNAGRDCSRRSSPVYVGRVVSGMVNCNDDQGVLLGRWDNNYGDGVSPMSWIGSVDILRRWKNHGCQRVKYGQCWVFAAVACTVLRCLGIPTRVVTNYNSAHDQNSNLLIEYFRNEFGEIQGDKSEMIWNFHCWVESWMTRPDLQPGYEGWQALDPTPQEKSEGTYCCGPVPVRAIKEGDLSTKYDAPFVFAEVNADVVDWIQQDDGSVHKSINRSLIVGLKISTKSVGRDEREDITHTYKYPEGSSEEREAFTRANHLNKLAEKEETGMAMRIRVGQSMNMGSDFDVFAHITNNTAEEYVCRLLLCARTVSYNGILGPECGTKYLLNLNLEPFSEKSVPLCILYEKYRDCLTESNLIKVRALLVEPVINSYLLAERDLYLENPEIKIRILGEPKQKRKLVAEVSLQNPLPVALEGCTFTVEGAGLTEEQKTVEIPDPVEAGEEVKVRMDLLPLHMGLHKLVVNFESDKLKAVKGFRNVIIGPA
Protocol: The coupling method was previously described by the Applicant (V. Thomas et al, 2004) and also in the corresponding data sheet of CovAbtest-Plate™ which is commercially available from Covalab (Ref #opr0004). Briefly, in separate tubes a solution mixture containing 150 μM of each peptide dissolved in 10 mM phosphate buffer pH5, 5 mM EDAC and 5 mM NHS was incubated for 30 min under gentle shaking. The resulting activated NHS-carboxyl C-terminal moiety of each peptide (15 nmoles) was used to be conjugated in each well of CovAbtest-Plate™ previously deprotonated during 15 min with 150 μl 0.6% sodium bicarbonate per well. The microtiter plate was then incubated during 2 hrs at room temperature and washed extensively with Tris Buffer Saline.
For this experiment we used the same procedures described by V Thomas et all (2004) and also in the Covalab's commercialized kit (opr0033). Briefly the Lyophilized transglutaminase was reconstituted in 40 mM tris buffer pH 8 and 50 μl of each mTG at 200 ng/ml and at 40 ng/ml were added in the wells containing 50 μl of biotin-X-cadaverine. The enzymatic mixture was incubated for 15 min at room temperature under gentle shaking. […] Absorbances at 450 nm were measured using a microplate reader (Multiskan, Labsystems, Helsinki, Finland). […]

[2] = molecular target: T2, microbial transglutaminase (mTG) (Streptomyces mobaraensis, UniProt P81453); test: Colorimetric assay: mTG incorporation of biotinylated peptides into immobilized spermine, apparent Km; type: biochemical; details: biotinylated peptides, spermine plate
T2 construct: purchased Covalab, France opr 0054
T2 sequence (P81453 77-407): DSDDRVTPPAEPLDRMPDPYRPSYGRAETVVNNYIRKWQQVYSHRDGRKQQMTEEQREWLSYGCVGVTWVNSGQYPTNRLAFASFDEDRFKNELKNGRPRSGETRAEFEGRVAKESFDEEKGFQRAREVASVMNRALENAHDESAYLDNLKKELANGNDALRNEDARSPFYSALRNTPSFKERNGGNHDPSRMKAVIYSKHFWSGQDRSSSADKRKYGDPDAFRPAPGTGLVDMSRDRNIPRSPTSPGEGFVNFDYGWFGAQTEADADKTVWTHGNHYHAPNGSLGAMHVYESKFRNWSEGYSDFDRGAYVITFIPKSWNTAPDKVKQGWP
Description: To produce the Covabtest-spm plate, the procedure previously described in Mily et al (2009) was used.
For the screening of the peptide listed in table 2 (Biotinylated peptides) the inventors used our colorimetric assay to measure transglutaminase 2 (TG2) cross linking activity (Mily et al, 2009) and commercialized under ref opr0033 in which mTG was used instead of TG2 and described in this experience. The principle of the method is based on the transamidation activity of mTG, using covalently coupled spermine to carboxy-substituted polystyrene plates and biotinylated peptides. The assay consists of the incorporation of the glutamine gamma-carboxamide group into the immobilized spermine. The amount of biotinylated peptide bound to the plate, as measured by the activity of streptavidin-peroxidase, is directly proportional to the TG activity. Absorbance was measured at 450 nm using the microplate reader.
In order to compare the affinity of mTG to the preferred substrate, the peptides were used at different concentrations ranging from 160, 80, 40, 20, 10, 5, 2.5 and 0 μM. Then the apparent Km were determined for each peptide and were calculated by Lineweaver-Burk method (1/Absorbance=f(1/[mTG (μM)]).
In this experiment, spermine was conjugated into the plate as described in B-II-4. Biotinylated peptides described in table 3 were incubated with mTG at different concentration (160, 80, 40, 20, 10, 5, 2.5 and 0 μM). […] Even if E seems to abolish the reactivity of the peptides this cannot be due to the negative charge only but also to the nature of the amino acides at the position X+1, X+2 and X+3. […] This is confirmed with LN-11Q8Q10 peptide.

HDLMWPDVYSQH (Peptide HH12Q11)
reactivity as substrate for TG2 incorporation of biot-cad [1]: less reactivity with TG2 than mTG | reactivity of peptide with mTG (text on Table 3) [2]: highly reactive with mTG
